B1: mAb14216 (antibody, V domains shown)
VH: EVQLVESGGGLVQPGGSLRLSCAASGFTFSRNNMHWVRQAPGKGLEYVSGISSNGGRTYYADSVKGRFTISRDNSKNTLYLQMGGLRAADMAVYFCTRDDELLSFDYWGQGTLVTVSS
VL: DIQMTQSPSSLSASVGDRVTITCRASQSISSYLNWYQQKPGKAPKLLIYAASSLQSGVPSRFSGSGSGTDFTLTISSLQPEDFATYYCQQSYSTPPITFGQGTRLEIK
notes: Bivalent parental antibody; also called parental bivalent anti-CD28 antibody; CD28 bivalent control antibody
B2: REGN6194 (bispecific antibody, human IgG4 S228P, kappa)
heavy 1: QVQLVQSGTEVKKPGASVKVSCKASGYTFTAYYMHWVRQAPGQGLDWMGWISPNSGFTNYAQKFQGRVTMTRDTSINTFYMELSGLRSDDTAVYYCAREGSTHHNSFDPWGQGTLVTVSSASTKGPSVFPLAPCSRSTSESTAALGCLVKDYFPEPVTVSWNSGALTSGVHTFPAVLQSSGLYSLSSVVTVPSSSLGTKTYTCNVDHKPSNTKVDKRVESKYGPPCPPCPAPPVAGPSVFLFPPKPKDTLMISRTPEVTCVVVDVSQEDPEVQFNWYVDGVEVHNAKTKPREEQFNSTYRVVSVLTVLHQDWLNGKEYKCKVSNKGLPSSIEKTISKAKGQPREPQVYTLPPSQEEMTKNQVSLTCLVKGFYPSDIAVEWESNGQPENNYKTTPPVLDSDGSFFLYSRLTVDKSRWQEGNVFSCSVMHEALHNHYTQKSLSLSLGK
heavy 2: QVQLQESGPGLVKPSETLSLTCTVSGGSISSYYWSWIRQPPGKGLEWIGYIYYSGITHYNPSLKSRVTISVDTSKIQFSLKLSSVTAADTAVYYCARWGVRRDYYYYGMDVWGQGTTVTVSSASTKGPSVFPLAPCSRSTSESTAALGCLVKDYFPEPVTVSWNSGALTSGVHTFPAVLQSSGLYSLSSVVTVPSSSLGTKTYTCNVDHKPSNTKVDKRVESKYGPPCPPCPAPPVAGPSVFLFPPKPKDTLMISRTPEVTCVVVDVSQEDPEVQFNWYVDGVEVHNAKTKPREEQFNSTYRVVSVLTVLHQDWLNGKEYKCKVSNKGLPSSIEKTISKAKGQPREPQVYTLPPSQEEMTKNQVSLTCLVKGFYPSDIAVEWESNGQPENNYKTTPPVLDSDGSFFLYSRLTVDKSRWQEGNVFSCSVMHEALHNRFTQKSLSLSPGK
light: not shown
notes: also called PD-L1×CD28; anti-PD-L1 × anti-CD28 bispecific antibody
B3: mAb14193 (antibody, V domains shown)
VH: EVQLVESGGGLVQPGGSLRLSCAASGFTFSTYAMTWVRQAPGKGLEWVSFISGSGDNTYYADSVKGRFTISRDNSKNTLYLQMNSLRADDSAIYHCAKDSGYCSSGGCSLYFYYGMDVWGQGTTVTVSS
VL: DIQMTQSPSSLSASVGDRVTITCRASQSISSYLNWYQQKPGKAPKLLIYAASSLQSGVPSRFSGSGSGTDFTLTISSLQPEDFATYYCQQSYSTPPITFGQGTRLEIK
notes: as for B1
B4: mAb14226 (antibody, V domains shown)
VH: QVQLQESGPGLVKPSETLSLTCTVSGGSISSYYWSWIRQPPGKGLEWIGYIYYSGITHYNPSLKSRVTISVDTSKIQFSLKLSSVTAADTAVYYCARWGVRRDYYYYGMDVWGQGTTVTVSS
VL: not shown
notes: as for B1
B5: REGN6192 (bispecific antibody, human IgG4 S228P, kappa)
heavy 1: EVQLVESGGGLVQPGRSLRLSCAASGFTFDDYALHWVRQAPGKGLEWVSGISWTGGTIDYADSVKGRFTISRDNAKNSLYLQMSSLRTEDTAIYYCTRDIRGNWKYGGWFDPWGQGTLVTVSSASTKGPSVFPLAPCSRSTSESTAALGCLVKDYFPEPVTVSWNSGALTSGVHTFPAVLQSSGLYSLSSVVTVPSSSLGTKTYTCNVDHKPSNTKVDKRVESKYGPPCPPCPAPPVAGPSVFLFPPKPKDTLMISRTPEVTCVVVDVSQEDPEVQFNWYVDGVEVHNAKTKPREEQFNSTYRVVSVLTVLHQDWLNGKEYKCKVSNKGLPSSIEKTISKAKGQPREPQVYTLPPSQEEMTKNQVSLTCLVKGFYPSDIAVEWESNGQPENNYKTTPPVLDSDGSFFLYSRLTVDKSRWQEGNVFSCSVMHEALHNHYTQKSLSLSLGK
heavy 2: EVQLVESGGGLVQPGGSLRLSCAASGFTFSTYAMTWVRQAPGKGLEWVSFISGSGDNTYYADSVKGRFTISRDNSKNTLYLQMNSLRADDSAIYHCAKDSGYCSSGGCSLYFYYGMDVWGQGTTVTVSSASTKGPSVFPLAPCSRSTSESTAALGCLVKDYFPEPVTVSWNSGALTSGVHTFPAVLQSSGLYSLSSVVTVPSSSLGTKTYTCNVDHKPSNTKVDKRVESKYGPPCPPCPAPPVAGPSVFLFPPKPKDTLMISRTPEVTCVVVDVSQEDPEVQFNWYVDGVEVHNAKTKPREEQFNSTYRVVSVLTVLHQDWLNGKEYKCKVSNKGLPSSIEKTISKAKGQPREPQVYTLPPSQEEMTKNQVSLTCLVKGFYPSDIAVEWESNGQPENNYKTTPPVLDSDGSFFLYSRLTVDKSRWQEGNVFSCSVMHEALHNRFTQKSLSLSPGK
light: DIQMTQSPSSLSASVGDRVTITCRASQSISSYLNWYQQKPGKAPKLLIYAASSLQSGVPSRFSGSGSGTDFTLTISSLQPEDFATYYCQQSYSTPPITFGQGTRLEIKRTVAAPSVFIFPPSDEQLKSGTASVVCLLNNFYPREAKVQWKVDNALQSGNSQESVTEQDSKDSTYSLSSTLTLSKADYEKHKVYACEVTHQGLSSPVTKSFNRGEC
notes: common light chain 1-39; also called PD-L1×CD28; anti-PD-L1 × anti-CD28 bispecific antibody

Experiments:
[1] = biological target: T1, human CD28 on cells (endogenous on Jurkat/NFkB-Luc cells; human primary CD4+ T cells) (human, UniProt P10747 19-220); test: flow cytometry, Jurkat/NFkB-Luc cells (endogenous CD28)
T1 construct: whole, on cells

[2] = biological target: T2, human PD-L1 expressed on cells (HEK293/hCD20/hPSMA/hPD-L1; WSU-DLCL2/hPD-L1) (human, UniProt Q9NZQ7 19-290); test: flow cytometry, HEK293/hCD20/hPSMA/hPD-L1 cells
T2 construct: whole, on cells; also called human programmed death ligand-1
T2 sequence (Q9NZQ7 19-290): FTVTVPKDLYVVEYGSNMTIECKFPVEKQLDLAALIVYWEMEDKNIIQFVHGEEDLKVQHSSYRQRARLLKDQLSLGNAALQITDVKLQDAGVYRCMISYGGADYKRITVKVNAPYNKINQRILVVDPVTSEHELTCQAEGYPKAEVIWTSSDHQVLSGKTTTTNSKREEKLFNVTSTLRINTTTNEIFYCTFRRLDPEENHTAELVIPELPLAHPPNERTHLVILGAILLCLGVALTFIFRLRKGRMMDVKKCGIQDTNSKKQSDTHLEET

[3] = biological target: T3, hPD-L1-mFc: hPD-L1 extracellular domain (amino acids F19-T239) expressed with the Fc portion of mouse IgG2a … (human; mouse, UniProt Q9NZQ7 19-239); test: blocking ELISA, 0.7 nM hPD-L1-mFc on plate-coated hPD1-hFc
T3 construct: range 19-239; not shown: Fc portion of mouse IgG2a, amino acids E98-K330
T3 sequence (Q9NZQ7 19-239 limits assumed): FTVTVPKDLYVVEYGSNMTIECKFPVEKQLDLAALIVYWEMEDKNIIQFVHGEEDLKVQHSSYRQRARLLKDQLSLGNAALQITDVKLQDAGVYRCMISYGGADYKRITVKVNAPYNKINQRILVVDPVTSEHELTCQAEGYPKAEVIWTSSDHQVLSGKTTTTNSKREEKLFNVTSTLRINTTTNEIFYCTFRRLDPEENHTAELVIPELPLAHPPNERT

[4] = biological target: T1, human CD28 on cells (endogenous on …); test: cell-based or functional assay
[5] = biological target: T1, human CD28 on cells (endogenous on …); test: cell-based or functional assay; remark: listed apart in the source
[6] = biological target: human CD28 expressed with a C-terminal murine Fc tag (hCD28.mFc) (human); test: SPR Biacore 25 C, hCD28.mFc captured by anti-mFc, antibody injected
[7] = biological target: T2, human PD-L1 expressed on cells …; test: cell-based or functional assay
[8] = biological target: human PD-L1 expressed with a C-terminal myc-myc-hexahistidine tag (hPD-L1.mmH) (human); test: SPR Biacore 25 C, antibody captured by anti-hFc, hPD-L1.mmH injected
Chain of human PD-L1 expressed with a C-terminal myc-myc-hexahistidine tag (hPD-L1.mmH) (human) (chain, as listed by the source limits assumed): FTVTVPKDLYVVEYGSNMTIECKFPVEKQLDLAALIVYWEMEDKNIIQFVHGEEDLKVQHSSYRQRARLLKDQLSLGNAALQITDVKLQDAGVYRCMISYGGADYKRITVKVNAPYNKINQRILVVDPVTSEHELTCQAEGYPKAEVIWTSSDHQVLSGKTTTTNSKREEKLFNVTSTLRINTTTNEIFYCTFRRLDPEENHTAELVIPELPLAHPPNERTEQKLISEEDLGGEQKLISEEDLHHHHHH

| Binder | EC50 [1] | Fold Change (max MFI over secondary antibody alone) [1] | Max gMFI [1] | Fold Change (max MFI over secondary antibody alone) [2] | Max gMFI [2] | binding result [2] | % Blocking at 100 nM mAb [3] | IL2 release EC50, CD4+ T cells + HEK293/hCD20/hPSMA + CD20×CD3 [4] | IL2 release MAX (RLU), CD4+ T cells + HEK293/hCD20/hPSMA [4] | IL2 release MAX (RLU), CD4+ T cells + HEK293/hCD20/hPSMA + CD20×CD3 [4] | IL2 release MAX (RLU), CD4+ T cells + HEK293/hCD20/hPSMA/hPD-L1 [4] | IL2 release MAX (RLU), CD4+ T cells + HEK293/hCD20/hPSMA/hPD-L1 + CD20×CD3 [4] | NFkB-luciferase EC50, Jurkat/NFkB-Luc + HEK293/hCD20/hPSMA/hPD-L1 + CD20×CD3 [5] | NFkB-luciferase MAX (RLU), Jurkat/NFkB-Luc + HEK293/hCD20/hPSMA [5] | NFkB-luciferase MAX (RLU), Jurkat/NFkB-Luc + HEK293/hCD20/hPSMA + CD20×CD3 [5] | NFkB-luciferase MAX (RLU), Jurkat/NFkB-Luc + HEK293/hCD20/hPSMA/hPD-L1 [5] | NFkB-luciferase MAX (RLU), Jurkat/NFkB-Luc + HEK293/hCD20/hPSMA/hPD-L1 + CD20×CD3 [5] | 90 nM mAb Bind (RU) [6] | Kd [6] | koff [6] | also measured |
| --- | --- | --- | --- | --- | --- | --- | --- | --- | --- | --- | --- | --- | --- | --- | --- | --- | --- | --- | --- | --- | --- |
| B1 | 9.3 nM | 60.3 fold | 25000 gMFI | 1.2 fold | 1800 gMFI | no binding | 1% | 9.54 nM | 3040 RLU | 25600 RLU | 2860 RLU | 3620 RLU | – | – | – | – | – | – | – | – | – |
| B2 | 7.5 nM | 90.4 fold | 28000 gMFI | – | – | – | – | – | 5480 RLU | 33700 RLU | 2870 RLU | 165000 RLU | 28 pM | 11400 RLU | 425000 RLU | 16700 RLU | 3.6e+06 RLU | 39.4 RU | 24.5 nM | 0.00326 s⁻¹ | kon [6]: 133000 M⁻¹ s⁻¹; t1/2 [6]: 3.5 min |
| B3 | 21 nM | 42.5 fold | 18000 gMFI | 3 fold | 4700 gMFI | no binding | 6% | 24.9 nM | 3110 RLU | 33600 RLU | 3070 RLU | 4720 RLU | – | – | – | – | – | – | – | – | – |
| B4 | 0.73 nM | 101 fold | 43000 gMFI | – | – | – | – | 0.116 nM | 2910 RLU | 64400 RLU | 2860 RLU | 38800 RLU | 87.5 pM | 73200 RLU | 649000 RLU | 60800 RLU | 596000 RLU | – | – | – | NFkB-luciferase EC50, Jurkat/NFkB-Luc + HEK293/hCD20/hPSMA [5]: 5.69 nM; NFkB-luciferase EC50, Jurkat/NFkB-Luc + HEK293/hCD20/hPSMA + CD20×CD3 [5]: 51.4 pM; IL2 release EC50, CD4+ T cells + HEK293/hCD20/hPSMA/hPD-L1 + CD20×CD3 [4]: 2.67 nM |
| B5 | – | 24.1 fold | 10000 gMFI | 876 fold | 1.4e+06 gMFI | – | 97% | 16.4 nM | 3870 RLU | 25200 RLU | 2690 RLU | 144000 RLU | 243 pM | 17200 RLU | 444000 RLU | 110000 RLU | 2.32e+06 RLU | 15.4 RU | 13.2 nM | 0.000342 s⁻¹ | EC50 [2]: 2.5 nM; IC50 [3]: 1.2 nM; kon [6]: 25900 M⁻¹ s⁻¹; t1/2 [6]: 33.8 min; AP-1 luciferase EC50, WSU-DLCL2/hPD-L1 + Jurkat/AP1-Luc/hPD1 [7]: 183 pM; AP-1 luciferase MAX (RLU), WSU-DLCL2/hPD-L1 + Jurkat/AP1-Luc/hPD1 [7]: 1.19e+06 RLU; 30 nM hPD-L1.mmH Bind (RU) [8]: 34.9 RU; Kd [8]: 0.103 nM; koff [8]: 6.18e-05 s⁻¹; kon [8]: 600000 M⁻¹ s⁻¹; t1/2 [8]: 187 min; IL2 release EC50, CD4+ T cells + HEK293/hCD20/hPSMA/hPD-L1 + CD20×CD3 [4]: 0.104 nM |
